Test results reported in paper PMC11165011, “Proteinase 3 depletion attenuates leukemia by promoting myeloid differentiation” (Cell Death and Differentiation, 2024).

B1: PRTN3 recombinant protein (enzyme, human, UniProt P24158 28-248, looked up)
chain: IVGGHEAQPHSRPYMASLQMRGNPGSHFCGGTLIHPSFVLTAAHCLRDIPQRLVNVVLGAHNVRTQEPTQQHFSVAQVFLNNYDAENKLNDVLLIQLSSPANLSASVATVQLPQQDQPVPHGTQCLAMGWGRVGAHDPPAQVLQELNVTVVTFFCRPHNICTFVPRRKAGICFGDSGGPLICDGIIQGIDSFVIWGCATRLFPDFFTRVALYVDWIRSTLR
notes: Proteinase 3 (PRTN3), human, bought recombinant protein; see the vendor's sheet for HY-P70509; also called hPRTN3; hPR3; source: bought: ACE (HY-P70509)
B2: N-terminal domain of STAT3, recombinant (domain or fragment)
chain: MAQWNQLQQLDTRYLEQLHQLYSDSFPMELRQFLAPWIESQDWAYAASKESHATLVFHNLLGEIDQQYSRFLQESNVLYQHNLRRIKQFLQSRYLEKPMEIARIVARCLWEESRLLQTAATAAQQGGQAN
modifications: Limits of the purchased recombinant N-terminal domain are not given; 1-130 is taken from the paper's own shortest Flag-STAT3 truncation (1-130), which matches the usual N-terminal domain boundary. …

Assays:
[1] = molecular target: T1, STAT3 recombinant protein (whole STAT3) (human, UniProt P40763 1-770); experiment: SPR; Biacore K8, CM5 chip; 'target proteins' at 20 μg/mL in PBS pH 7.2 immobilised by amine coupling at 25 °C (which partner is not stated); 300 s dissociation; steady-state analysis; settings: both partners purified
T1 construct: STAT3, human, bought recombinant protein with the N-terminal domain; In the cleavage test STAT3 ran as a ~120 kDa monomer, which may mean a carrier tag (surmise); also called recombinant human STAT3; source: bought: one of Abcam (Ab43618), ACRO (ST3-H5149), ACE (HY-P70574)

[2] = molecular target: B1; experiment: as above; settings: both partners purified

Binder	Kd [1] [µM]	Kd [2] [µM]
B1	0.224	–
B2	–	6.91
